Earlier results as cited in US20190010499.

Test system: IL-6
Settings: binding constant used for modeling; measurement method not stated; nucleic acid type not stated; cited from earlier work

Anti-IL-6 aptamer #1 (SL1025)
Kd: 233 pM

Anti-IL-6 aptamer #2 (SL1032)
Kd: 1600 pM
